B1: ZNF649 (parent)
chain: DECEKAYFYMSCLVKHKRIHSREK
B2: RAB11B (parent)
chain: AVPTDEARAFAEKNNLSFIETSAL

Variants of: B1
Test: protein stability index of a GFP-peptide fusion (GPS, HEK-293T) (PSI 1-6); higher = more stable
Conditions: c terminus: a fixed tail appended
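Note: lentivirally expressed fusions sorted by FACS into six bins by GFP to DsRed ratio, PSI derived from sequencing read proportions per bin multiplied by bin number.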

Row | Variant | protein stability index
1 | D1R | 2.03
2 | D1F | 1.98
3 | D1H | 2.61
4 | D1Q | 2.44
5 | D1P | 2.44
6 | D1K | 2
7 | D1E | 2.47
8 | D1A | 2.41
9 | D1C | 1.98
10 | D1M | 2.06
11 | D1Y | 2.17
12 | D1L | 1.98
13 | D1N | 2.72
14 | D1G | 1.92
15 | D1T | 2.9
16 | D1W | 2.2
17 | D1I | 1.98
18 | D1S | 2.81
19 | D1V | 1.57
20 | C3S | 2.53
21 | C3T | 2.9
22 | C3E | 3.97

Row | Variant | protein stability index
23 | C3I | 1.81
24 | C3F | 1.91
25 | C3D | 2.98
26 | C3R | 2.33
27 | C3V | 2.55
28 | C3A | 3.06
29 | C3G | 2.92
30 | C3W | 1.97
31 | C3N | 2.64
32 | C3L | 1.8
33 | C3M | 2.4
34 | C3Q | 3.11
35 | C3P | 2.77
36 | C3K | 2.88
37 | C3H | 2.35
38 | C3Y | 2.67
39 | E4C | 2.01
40 | E4S | 2.48
41 | E4A | 1.62
42 | E4G | 1.76
43 | E4M | 1.44
44 | E4P | 2.45

Row | Variant | protein stability index
45 | E4D | 2.83
46 | E4F | 1.92
47 | E4I | 2.17
48 | E4R | 2.33
49 | E4T | 2.88
50 | E4N | 2
51 | E4K | 1.66
52 | E4L | 2.18
53 | E4V | 1.79
54 | E4Q | 2.34
55 | E4Y | 2.01
56 | E4W | 1.99
57 | E4H | 2.26
58 | K5L | 2.61
59 | K5I | 1.79
60 | K5H | 2.79
61 | K5E | 2.95
62 | K5G | 3.13
63 | K5C | 2.52
64 | K5M | 2.34
65 | K5N | 2.84
66 | K5D | 3.36

Row | Variant | protein stability index
67 | K5F | 1.67
68 | K5A | 2.71
69 | E2H | 2.03
70 | E2K | 2.17
71 | E2D | 2.21
72 | E2F | 2.82
73 | E2Q | 2.49
74 | E2V | 1.57
75 | E2A | 2.17
76 | E2P | 2.21
77 | E2N | 2.62
78 | E2L | 2.25
79 | E2C | 1.52
80 | E2Y | 4.44
81 | E2S | 1.72
82 | E2M | 1.41
83 | E2I | 1.71
84 | E2R | 2.08
85 | E2T | 3.17
86 | E2G | 2.29

Variants of: B2
Test: as above
Conditions: c terminus: a fixed tail appended

Row | Variant | protein stability index
87 | I19F | 4.37
88 | I19L | 3.25
89 | I19T | 4.11
90 | I19V | 3.26
91 | I19G | 4.64
92 | I19H | 3.49
93 | I19D | 4.99
94 | I19R | 4.54
95 | I19S | 4.56
96 | I19P | 5.04
97 | I19E | 4.59
98 | I19A | 4.6
99 | I19M | 4.21
100 | I19C | 4.34
101 | I19W | 3.62
102 | I19K | 4.79
103 | I19Y | 3.73
104 | I19Q | 4.38
105 | I19N | 4.1
106 | K13R | 2.5
107 | K13D | 3.24
108 | K13Y | 1.88
109 | K13F | 2.49
110 | K13A | 3.08
111 | K13L | 2.14

Row | Variant | protein stability index
112 | K13N | 1.59
113 | K13T | 2.63
114 | K13P | 2.12
115 | K13V | 2.13
116 | K13S | 2.48
117 | K13C | 2.47
118 | K13W | 1.94
119 | K13H | 2.24
120 | K13E | 3.9
121 | K13Q | 2.84
122 | K13I | 2.09
123 | K13M | 2.09
124 | K13G | 3.17
125 | F10Y | 3.2
126 | E20R | 3.02
127 | E20G | 2.76
128 | E20Q | 3.35
129 | E20D | 2.92
130 | E20V | 1.95
131 | E20M | 2.05
132 | E20F | 1.62
133 | E20P | 3.17
134 | E20I | 1.85
135 | E20S | 3.18
136 | E20L | 2.15

Row | Variant | protein stability index
137 | E20N | 1.74
138 | E20H | 2.36
139 | E20T | 2.44
140 | E20A | 2.88
141 | E20W | 1.32
142 | E20Y | 2.31
143 | E20K | 3.13
144 | E20C | 2.28
145 | A11R | 2.35
146 | A11V | 2.3
147 | A11Q | 2.85
148 | A11P | 2.8
149 | A11W | 2.48
150 | A11E | 3.69
151 | A11G | 2.16
152 | A11C | 3.16
153 | A11I | 2.66
154 | A11K | 2.19
155 | A11Y | 2.15
156 | A11M | 2.8
157 | A11L | 2.4
158 | A11S | 2.68
159 | A11N | 2.87
160 | A11D | 3.88
161 | A11F | 2.69

Row | Variant | protein stability index
162 | A11T | 2.71
163 | A11H | 2.3
164 | L16A | 3.8
165 | L16F | 3.36
166 | L16R | 4.42
167 | L16S | 4.37
168 | L16D | 4.52
169 | L16Q | 4
170 | L16P | 4.47
171 | L16W | 3.25
172 | L16H | 4.06
173 | L16E | 5.02
174 | L16N | 4.25
175 | L16G | 4.3
176 | L16T | 4.57
177 | L16Y | 3.18
178 | L16V | 4.29
179 | L16C | 4.1
180 | L16M | 4.2
181 | L16I | 3.95
182 | L16K | 4.62
183 | F18T | 4.97
184 | F18S | 4.89
185 | F18W | 3.67
186 | F18C | 4.48

Row | Variant | protein stability index
187 | F18K | 4.67
188 | F18V | 4.71
189 | F18R | 4.29
190 | F18M | 4.1
191 | F18L | 3.53
192 | F18Q | 4.18
193 | F18I | 4.23
194 | F18D | 5.17
195 | F18A | 4.78
196 | F18Y | 2.97
197 | F18P | 4.88
198 | F18G | 4.47
199 | F18E | 5.3
200 | F18N | 4.95
201 | F18H | 4.51
202 | T21Q | 4.12
203 | T21V | 1.52
204 | T21D | 4.39
205 | T21C | 2.85
206 | T21K | 3.65
207 | T21F | 2.34
208 | T21L | 3.08
209 | T21G | 2.38
210 | T21N | 2.86
211 | T21H | 3.06

Row | Variant | protein stability index
212 | T21E | 4.67
213 | T21Y | 2
214 | T21S | 3.64
215 | T21W | 2.76
216 | T21I | 2.3
217 | T21P | 2.35
218 | T21R | 3.42
219 | T21M | 3.35
220 | T21A | 3.41
221 | L24I | 3.5
222 | L24W | 2.47
223 | L24G | 4.49
224 | L24F | 2.43
225 | L24K | 4.15
226 | L24E | 4.74
227 | L24P | 4.55
228 | L24H | 4.29
229 | L24V | 3.57
230 | L24T | 3.55
231 | L24A | 3.49
232 | L24D | 5.12
233 | L24Q | 3.98
234 | L24N | 4.87
235 | L24Y | 3.21
236 | L24S | 4.25

Row | Variant | protein stability index
237 | L24R | 2.8
238 | L24C | 3.38
239 | L24M | 3.13
240 | N14G | 2.73
241 | N14C | 2.18
242 | N14W | 2.83
243 | N14L | 2.23
244 | N14P | 2.53
245 | N14D | 3.96
246 | N14M | 2.25
247 | N14A | 2.48
248 | N14I | 2.23
249 | N14V | 2.18
250 | N14R | 2.27
251 | N14Y | 2.53
252 | N14F | 2.25
253 | N14S | 2.84
254 | N14Q | 3.47
255 | N14E | 4.35
256 | N14K | 3.38
257 | N14H | 2.26
258 | N14T | 2.88
259 | E12R | 2.15
260 | E12K | 1.93
261 | E12G | 2.16

Row | Variant | protein stability index
262 | E12C | 1.91
263 | E12F | 1.74
264 | E12T | 2.61
265 | E12I | 1.99
266 | E12H | 2.65
267 | E12S | 2.08
268 | E12D | 2.81
269 | E12M | 1.97
270 | E12A | 2.89
271 | E12Y | 1.93
272 | E12V | 2.47
273 | E12P | 2.34
274 | E12Q | 2.52
275 | E12W | 1.6
276 | E12L | 2.02
277 | E12N | 2.02
278 | S17M | 3.1
279 | S17P | 4.19
280 | S17A | 2.78
281 | S17V | 3.15
282 | S17L | 2.77
283 | S17R | 3.41
284 | S17Q | 4.23
285 | S17N | 2.86
286 | S17Y | 2.85

Row | Variant | protein stability index
287 | S17I | 2.89
288 | S17H | 3.07
289 | S17K | 3.79
290 | S17C | 3
291 | S17T | 2.93
292 | S17F | 2.59
293 | S17D | 3.48
294 | S17W | 2.64
295 | S17E | 4.62
296 | S17G | 3.7
297 | S22V | 3.19
298 | S22C | 3.36
299 | S22W | 2.91
300 | S22F | 2.52
301 | S22M | 2.83
302 | S22E | 4.06
303 | S22H | 2.74
304 | S22N | 3.69
305 | S22D | 4.17
306 | S22T | 2.98
307 | S22R | 3.13
308 | S22Y | 1.96
309 | S22I | 2.49
310 | S22P | 4.02
311 | S22L | 3.08

Row | Variant | protein stability index
312 | S22Q | 3.56
313 | S22K | 3.69
314 | S22A | 2.71
315 | S22G | 2.85
316 | A23Y | 2.43
317 | A23M | 2.3
318 | A23I | 2.09
319 | A23G | 3.96
320 | A23H | 2.62
321 | A23R | 2.47
322 | A23W | 2.15
323 | A23C | 2.9
324 | A23N | 2.88
325 | A23K | 3.28
326 | A23Q | 2.86
327 | A23L | 2.4
328 | A23F | 2.14
329 | A23D | 4.11
330 | A23S | 3.38
331 | A23T | 2.77
332 | A23P | 2.86
333 | A23E | 4.41
334 | A23V | 1.75

Source: the supplement of paper PMC10567573
